Blank lines part the entries; values can stand above or below the binder they belong to.
Assays:
[1] = molecular target: human Tau(pS422) fragment (residues 416 to 430 with phosphorylated serine 422) (human); test: ELISA, coated antigen
[2] = molecular target: human Tau(pS422) fragment (residues 416 to 430 with phosphorylated serine 422) (human); test: ELISA, ratio of EC50 values
[3] = molecular target: human Tau(pS422) fragment (residues 416 to 430 with phosphorylated serine 422) (human); test: ELISA, biotinylated peptide on streptavidin plate

EC50 [1]: 4.4 ng/mL
B1: VH32/VL21 (antibody, V domains shown)
VH: EVQVLESGGGLVQPGGSLRLSCAVSGFSLSSNAINWVRQAPGKGLEWVGYIAVSGNTYYASWAKGRFTISRDNSKNTVYLQMNSLRAEDTAVYYCGKSNIWGQGTLVTVSS
VL: AQVMTQSPSSLSASVGDRVTITCRSSQSVRTNKLAWFQQKPGQPPKRLIYSASTLDFGVPSRFSGSGSGTEFTLTISSLQPEDFATYYCLGYFDSSADIVAFGGGTKVEIK

EC50 [1]: 6.3 ng/mL
selectivity over non-phosphorylated Tau peptide [2]: > 100 fold
EC50 [3]: 1.1 ng/mL
B2: rabbit antibody Mab 086 (VH00/VL00) (antibody, V domains shown)
VH: QSVEESGGRLVTPGTPLTLTCTVSGFSLSSNAINWVRQAPGKGLEWIGYIAVSGNTYYASWAKGRFTISKASTTVDLKMTSPTAEDTGTYFCGKSNIWGPGTLVTVSL
VL: AQVLTQTTSPVSAAVGSTVTISCQSSQSVRTNKLAWFQQKPGQPPKRLIYSASTLDFGVPSRFSASGSGTQFTLTISDVQCDDAATYYCLGYFDCSIADCVAFGGGTEVVVK

Reference: patent publication US20200223912A1
